Source: patent publication US20230407373A1 (priority 2020, published 2023)

System: HCoV-OC43 gRNA and sgRNA
Type: binding
Details: for target (unweighted spectral count, OC43 Probe II capture): 36 hpi, type n_36_v, tested against no-probe control, FDR<10%; for target (unweighted spectral count, OC43 Probe II) / background (unweighted spectral count, no-probe control): type n_48_v, 48 hpi; for target (unweighted spectral count, OC43 Probe II): OC43 Probe II capture on infected cells; for background (unweighted spectral count, no-probe control): no-probe control on infected cells

B1: SNX13 (protein, UniProt Q9Y5W8 1-968, looked up)
Sorting nexin-13: MLTEASLSIWGWGSLGIVLFLITFGPFVIFYLTFYILCFVGGGLVVTLLFGKTNSEKYLEQCEHSFLPPTSPGVPKCLEEMKREARTIKIDRRLTGANIIDEPLQQVIQFSLRDYVQYWYYTLSDDESFLLEIRQTLQNALIQFATRSKEIDWQPYFTTRIVDDFGTHLRVFRKAQQKITEKDDQVKGTAEDLVDTFFEVEVEMEKEVCRDLVCTSPKDEEGFLRDLCEVLLYLLLPPGDFQNKIMRYFVREILARGILLPLINQLSDPDYINQYVIWMIRDSNCNYEAFMNIIKLSDNIGELEAVRDKAAEELQYLRSLDTAGDDINTIKNQINSLLFVKKVCDSRIQRLQSGKEINTVKLAANFGKLCTVPLDSILVDNVALQFFMDYMQQTGGQAHLFFWMTVEGYRVTAQQQLEVLLSRQRDGKHQTNQTKGLLRAAAVGIYEQYLSEKASPRVTVDDYLVAKLADTLNHEDPTPEIFDDIQRKVYELMLRDERFYPSFRQNALYVRMLAELDMLKDPSFRGSDDGDGESFNGSPTGSINLSLDDLSNVSSDDSVQLHAYISDTVYADYDPYAVAGVCNDHGKTYALYAITVHRRNLNSEEMWKTYRRYSDFHDFHMRITEQFESLSSILKLPGKKTFNNMDRDFLEKRKKDLNAYLQLLLAPEMMKASPALAHYVYDFLENKAYSKGKGDFARKMDTFVNPLRNSMRNVSNAVKSLPDSLAEGMTKMSDNMGKMSERLGQDIKQSFFKVPPLIPKTDSDPEHRRVSAQLDDNVDDNIPLRVMLLLMDEVFDLKERNQWLRRNIKNLLQQLIRATYGDTINRKIVDHVDWMTSPEQVADSVKRFRDAFWPNGILAEAVPCRDKSIRMRTRVAGKTKLLAIMPDELKHIIGAETTRKGILRVFEMFQHNQLNRRMVYVFLEGFLETLFPQYKFRELFNKLHSRSKQMQKYKQKLQTTQAPSLQKR
Q: For B1, which “target (unweighted spectral count, OC43 Probe II capture)” value is on record?
A: The value was 5.

B2: NHP2 (protein, UniProt Q9NX24 1-153, looked up)
H/ACA ribonucleoprotein …: MTKIKADPDGPEAQAEACSGERTYQELLVNQNPIAQPLASRRLTRKLYKCIKKAVKQKQIRRGVKEVQKFVNKGEKGIMVLAGDTLPIEVYCHLPVMCEDRNLPYVYIPSKTDLGAAAGSKRPTCVIMVKPHEEYQEAYDECLEEVQSLPLPL
Q: With B2 as the molecule, how does the “target (unweighted spectral count, OC43 Probe II capture)” value read?
A: The value was 6.

Q: And the “target (unweighted spectral count, OC43 Probe II)” value?
A: The value was 6.

Q: And the “background (unweighted spectral count, no-probe control)” value?
A: Its value is 1.

B3: UBAP2 (protein, UniProt Q5T6F2 1-1119, looked up)
Ubiquitin-associated protein 2: MMTSVSSDHCRGAREKPQISAAQSTQPQKQVVQATAEQMRLAQVIFDKNDSDFEAKVKQLMEVTGKNQDECIVALHDCNGDVNKAINILLEGNSDTTSWETVGCKKKNFAKENSENKENREKKSEKESSRGRGNNNRKGRGGNRGREFRGEENGIDCNQVDKPSDRGKRARGRGFGRGRGRGAGRFSTQGMGTFNPADYSDSTSTDVCGTKLVVWEAAQNGADEGTELASNTHNIAQDLSNKSSYGLKGAWKNSVEEWTTEDWTEDLSETKVFTASSAPAENHILPGQSIDLVALLQKPVPHSQASEANSFETSQQQGFGQALVFTNSQHNNQMAPGTGSSTAVNSCSPQSLSSVLGSGFGELAPPKMANITSSQILDQLKAPSLGQFTTTPSTQQNSTSHPTTTTSWDLKPPTSQSSVLSHLDFKSQPEPSPVLSQLSQRQQHQSQAVTVPPPGLESFPSQAKLRESTPGDSPSTVNKLLQLPSTTIENISVSVHQPQPKHIKLAKRRIPPASKIPASAVEMPGSADVTGLNVQFGALEFGSEPSLSEFGSAPSSENSNQIPISLYSKSLSEPLNTSLSMTSAVQNSTYTTSVITSCSLTSSSLNSASPVAMSSSYDQSSVHNRIPYQSPVSSSESAPGTIMNGHGGGRSQQTLDTPKTTGPPSALPSVSSLPSTTSCTALLPSTSQHTGDLTSSPLSQLSSSLSSHQSSLSAHAALSSSTSHTHASVESASSHQSSATFSTAATSVSSSASSGASLSSSMNTANSLCLGGTPASASSSSSRAAPLVTSGKAPPNLPQGVPPLLHNQYLVGPGGLLPAYPIYGYDELQMLQSRLPVDYYGIPFAAPTALASRDGSLANNPYPGDVTKFGRGDSASPAPATTPAQPQQSQSQTHHTAQQPFVNPALPPGYSYTGLPYYTGMPSAFQYGPTMFVPPASAKQHGVNLSTPTPPFQQASGYGQHGYSTGYDDLTQGTAAGDYSKGGYAGSSQAPNKSAGSGPGKGVSVSSSTTGLPDMTGSVYNKTQTFDKQGFHAGTPPPFSLPSVLGSTGPLASGAAPGYAPPPFLHILPAHQQPHSQLLHHHLPQDAQSGSGQRSQPSSLQPKSQASKPAYGNSPYWTN
Q: For B3, which “target (unweighted spectral count, OC43 Probe II capture)” value is on record?
A: The value was 4.

B4: TRIM28 (protein, UniProt Q13263 2-835, looked up)
Transcription intermediary …: AASAAAASAAAASAASGSPGPGEGSAGGEKRSTAPSAAASASASAAASSPAGGGAEALELLEHCGVCRERLRPEREPRLLPCLHSACSACLGPAAPAAANSSGDGGAAGDGTVVDCPVCKQQCFSKDIVENYFMRDSGSKAATDAQDANQCCTSCEDNAPATSYCVECSEPLCETCVEAHQRVKYTKDHTVRSTGPAKSRDGERTVYCNVHKHEPLVLFCESCDTLTCRDCQLNAHKDHQYQFLEDAVRNQRKLLASLVKRLGDKHATLQKSTKEVRSSIRQVSDVQKRVQVDVKMAILQIMKELNKRGRVLVNDAQKVTEGQQERLERQHWTMTKIQKHQEHILRFASWALESDNNTALLLSKKLIYFQLHRALKMIVDPVEPHGEMKFQWDLNAWTKSAEAFGKIVAERPGTNSTGPAPMAPPRAPGPLSKQGSGSSQPMEVQEGYGFGSGDDPYSSAEPHVSGVKRSRSGEGEVSGLMRKVPRVSLERLDLDLTADSQPPVFKVFPGSTTEDYNLIVIERGAAAAATGQPGTAPAGTPGAPPLAGMAIVKEEETEAAIGAPPTATEGPETKPVLMALAEGPGAEGPRLASPSGSTSSGLEVVAPEGTSAPGGGPGTLDDSATICRVCQKPGDLVMCNQCEFCFHLDCHLPALQDVPGEEWSCSLCHVLPDLKEEDGSLSLDGADSTGVVAKLSPANQRKCERVLLALFCHEPCRPLHQLATDSTFSLDQPGGTLDLTLIRARLQEKLSPPYSSPQEFAQDVGRMFKQFNKLTEDKADVQSIIGLQRFFETRMNEAFGDTKFSAVLVEPPPMSLPGAGLSSQELSGGPGDGP
Q: For B4, which “target (unweighted spectral count, OC43 Probe II capture)” value is on record?
A: The value was 13.

Q: And the “target (unweighted spectral count, OC43 Probe II)” value?
A: Its value is 6.

Q: What about the “background (unweighted spectral count, no-probe control)” value of the same molecule?
A: Its value is 1.

B5: PATL1 (protein, UniProt Q86TB9 1-770, looked up)
Protein PAT1 homolog 1: MFRYESLEDCPLDEDEDAFQGLGEEDEEIDQFNDDTFGSGAVDDDWQEAHERLAELEEKLPVAVNEQTGNGERDEMDLLGDHEENLAERLSKMVIENELEDPAIMRAVQTRPVLQPQPGSLNSSIWDGSEVLRRIRGPLLAQEMPTVSVLEYALPQRPPQGPEDDRDLSERALPRRSTSPIIGSPPVRAVPIGTPPKQMAVPSFTQQILCPKPVHVRPPMPPRYPAPYGERMSPNQLCSVPNSSLLGHPFPPSVPPVLSPLQRAQLLGGAQLQPGRMSPSQFARVPGFVGSPLAAMNPKLLQGRVGQMLPPAPGFRAFFSAPPSATPPPQQHPPGPGPHLQNLRSQAPMFRPDTTHLHPQHRRLLHQRQQQNRSQHRNLNGAGDRGSHRSSHQDHLRKDPYANLMLQREKDWVSKIQMMQLQSTDPYLDDFYYQNYFEKLEKLSAAEEIQGDGPKKERTKLITPQVAKLEHAYKPVQFEGSLGKLTVSSVNNPRKMIDAVVTSRSEDDETKEKQVRDKRRKTLVIIEKTYSLLLDVEDYERRYLLSLEEERPALMDDRKHKICSMYDNLRGKLPGQERPSDDHFVQIMCIRKGKRMVARILPFLSTEQAADILMTTARNLPFLIKKDAQDEVLPCLLSPFSLLLYHLPSVSITSLLRQLMNLPQSAATPALSNPHLTAVLQNKFGLSLLLILLSRGEDLQSSDPATESTQNNQWTEVMFMATRELLRIPQAALAKPISIPTNLVSLFSRYVDRQKLNLLETKLQLVQGIR
Q: For B5, which “target (unweighted spectral count, OC43 Probe II capture)” value is on record?
A: Its value is 6.

B6: SF3B1 (protein, UniProt O75533 1-1304, looked up)
Splicing factor 3B subunit 1: MAKIAKTHEDIEAQIREIQGKKAALDEAQGVGLDSTGYYDQEIYGGSDSRFAGYVTSIAATELEDDDDDYSSSTSLLGQKKPGYHAPVALLNDIPQSTEQYDPFAEHRPPKIADREDEYKKHRRTMIISPERLDPFADGGKTPDPKMNARTYMDVMREQHLTKEEREIRQQLAEKAKAGELKVVNGAAASQPPSKRKRRWDQTADQTPGATPKKLSSWDQAETPGHTPSLRWDETPGRAKGSETPGATPGSKIWDPTPSHTPAGAATPGRGDTPGHATPGHGGATSSARKNRWDETPKTERDTPGHGSGWAETPRTDRGGDSIGETPTPGASKRKSRWDETPASQMGGSTPVLTPGKTPIGTPAMNMATPTPGHIMSMTPEQLQAWRWEREIDERNRPLSDEELDAMFPEGYKVLPPPAGYVPIRTPARKLTATPTPLGGMTGFHMQTEDRTMKSVNDQPSGNLPFLKPDDIQYFDKLLVDVDESTLSPEEQKERKIMKLLLKIKNGTPPMRKAALRQITDKAREFGAGPLFNQILPLLMSPTLEDQERHLLVKVIDRILYKLDDLVRPYVHKILVVIEPLLIDEDYYARVEGREIISNLAKAAGLATMISTMRPDIDNMDEYVRNTTARAFAVVASALGIPSLLPFLKAVCKSKKSWQARHTGIKIVQQIAILMGCAILPHLRSLVEIIEHGLVDEQQKVRTISALAIAALAEAATPYGIESFDSVLKPLWKGIRQHRGKGLAAFLKAIGYLIPLMDAEYANYYTREVMLILIREFQSPDEEMKKIVLKVVKQCCGTDGVEANYIKTEILPPFFKHFWQHRMALDRRNYRQLVDTTVELANKVGAAEIISRIVDDLKDEAEQYRKMVMETIEKIMGNLGAADIDHKLEEQLIDGILYAFQEQTTEDSVMLNGFGTVVNALGKRVKPYLPQICGTVLWRLNNKSAKVRQQAADLISRTAVVMKTCQEEKLMGHLGVVLYEYLGEEYPEVLGSILGALKAIVNVIGMHKMTPPIKDLLPRLTPILKNRHEKVQENCIDLVGRIADRGAEYVSAREWMRICFELLELLKAHKKAIRRATVNTFGYIAKAIGPHDVLATLLNNLKVQERQNRVCTTVAIAIVAETCSPFTVLPALMNEYRVPELNVQNGVLKSLSFLFEYIGEMGKDYIYAVTPLLEDALMDRDLVHRQTASAVVQHMSLGVYGFGCEDSLNHLLNYVWPNVFETSPHVIQAVMGALEGLRVAIGPCRMLQYCLQGLFHPARKVRDVYWKIYNSIYIGSQDALIAHYPRIYNDDKNTYIRYELDYIL
Q: With B6 as the molecule, how does the “target (unweighted spectral count, OC43 Probe II capture)” value read?
A: Its value is 6.

B7: SRP72 (protein, UniProt O76094 2-671, looked up)
Signal recognition particle …: ASGGSGGVSVPALWSEVNRYGQNGDFTRALKTVNKILQINKDDVTALHCKVVCLIQNGSFKEALNVINTHTKVLANNSLSFEKAYCEYRLNRIENALKTIESANQQTDKLKELYGQVLYRLERYDECLAVYRDLVRNSQDDYDEERKTNLSAVVAAQSNWEKVVPENLGLQEGTHELCYNTACALIGQGQLNQAMKILQKAEDLCRRSLSEDTDGTEEDPQAELAIIHGQMAYILQLQGRTEEALQLYNQIIKLKPTDVGLLAVIANNIITINKDQNVFDSKKKVKLTNAEGVEFKLSKKQLQAIEFNKALLAMYTNQAEQCRKISASLQSQSPEHLLPVLIQAAQLCREKQHTKAIELLQEFSDQHPENAAEIKLTMAQLKISQGNISKACLILRSIEELKHKPGMVSALVTMYSHEEDIDSAIEVFTQAIQWYQNHQPKSPAHLSLIREAANFKLKYGRKKEAISDLQQLWKQNPKDIHTLAQLISAYSLVDPEKAKALSKHLPSSDSMSLKVDVEALENSAGATYIRKKGGKVTGDSQPKEQGQGDLKKKKKKKKGKLPKNYDPKVTPDPERWLPMRERSYYRGRKKGKKKDQIGKGTQGATAGASSELDASKTVSSPPTSPRPGSAATVSASTSNIIPPRHQKPAGAPATKKKQQQKKKKGGKGGW
Q: For B7, which “target (unweighted spectral count, OC43 Probe II capture)” value is on record?
A: The value was 4.
